Data: paper doi:10.1101/2022.11.15.516482 (bioRxiv, 2022)

Tests used:
[1] = target: Salpingoeca rosetta caveolin (F2U793) (Salpingoeca rosetta); experiment: cryo-EM structure
cryo-EM structure = target: the molecule itself; experiment: cryo-EM structure

| stoichiometry N [1] | Molecule | stoichiometry N (cryo-EM structure) |
| --- | --- | --- |
| 11 | Salpingoeca rosetta caveolin (F2U793) (natural protein) | – |
| – | Strongylocentrotus purpuratus caveolin (A0A7M7T4C2) (natural protein, UniProt A0A7M7T4C2 1-159, looked up) MELIHPENGPSGTVQVPLIQGVDQSDTEDVYRLSPHVTTGFADTFKESNDIMGFSFMEKVNGAIYKYTHFAFYAVLNLLLAPFIAFSFGLSFAVMHFAVVWFVQPIMKLYYVWLRVFNLAYEPALRLVCDPIHRSIALILSGIKGQFKMNSSDVKTSQV | 11 |
